This note sets out measurements from patent EP4714973A1 (Gracell Bioscience (Shanghai) Co., Ltd., dated 2026).

Experiment [1] has as its target T1, CLL1 on the surface of cells (HL60, KG1, Hela-CLL1) (UniProt Q5QGZ9 1-265, limits assumed).
T1 construct: whole, on cells; HL60 and KG1 are human cell lines; also called CLEC12A; CD371
T1 sequence (looked up): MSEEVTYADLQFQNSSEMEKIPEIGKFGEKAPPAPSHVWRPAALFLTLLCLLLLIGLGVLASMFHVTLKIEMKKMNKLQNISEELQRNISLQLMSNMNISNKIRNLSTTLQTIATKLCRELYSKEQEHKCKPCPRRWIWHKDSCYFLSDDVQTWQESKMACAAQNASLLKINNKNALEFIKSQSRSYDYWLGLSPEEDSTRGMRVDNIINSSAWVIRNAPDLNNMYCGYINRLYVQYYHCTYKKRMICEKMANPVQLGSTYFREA
Nature of the experiment: flow cytometry, serial dilution of VHH-mIgG2a Fc on HL60 cells. In general terms: Flow cytometry measures light scatter and fluorescence of single cells or particles in a stream.

Experiment [2] addresses T1, CLL1 on the surface of cells (HL60, …). Put plainly: flow cytometry, serial dilution of scFv-mIgG2a Fc on HL60 cells (comparator, weaker signal).

B1: C3 single-domain antibody with the Fc fragment of murine IgG2a at the C-terminal (Fc fusion, not shown: a dimerising Fc or GST; small tags and cut ends)
VHH: QVQLVESGGGLVQPGGSLRLSCAASGFTFSSYAMGWARQVPGKEVEWVSGIYSDGRTYYADSVKGRFTISRDNAKNEVYLQMNSLKPEDTAVYYCAPEPGQGVGDYWGQGTQVTVSS
notes: also called C3 VHH-mIgG2aFc
With B1, the binding result in experiment [1] is on record as “binds”.

B2: C5 single-domain antibody with the Fc fragment of murine IgG2a at the C-terminal (Fc fusion, not shown: a dimerising Fc or GST; small tags and cut ends)
VHH: QVQLVESGGGLVQPGGSLRLSCAASGFTFSSYDMGWARQVPGKAVEWVSGIYSDGSTYYADSVKGRFTISRDNAKNTVYLQMNSLKPEDTAVYYCATDPLTSELRSWGQGTQVTVSS
notes: also called C5 VHH-mIgG2aFc
Consider B2, for which the binding result in experiment [1] is “binds”.

B3: C1 single-domain antibody with the Fc fragment of murine IgG2a at the C-terminal (Fc fusion)
chain: QVQLVESGGGLVQPGGSLRLSCAASGFTFSSKTMGWARQVPGKAIEWLSGIYSDGSTYYADSVKGRFTISRDNAKNMVYLQMNSLKPEDTAVYYCATEDLTSYGRGTQVTVSS
notes: also called C1 VHH-mIgG2aFc; not shown: Fc fragment of murine IgG2a, added to the C-terminal of the VHH
For B3, the binding result in experiment [1] is reported as “binds”.

B4: C7 single-domain antibody with the Fc fragment of murine IgG2a at the C-terminal (Fc fusion, not shown: a dimerising Fc or GST; small tags and cut ends)
VHH: QVQLVESGGGLVQPGGSLRLSCAASGFTFSSYAMGWARQVPGKEVEWVSGIYSDGSTNYADSVKGRFTISRDNAKNTVYLQMNSLRPEDTAVYHCATDPTVHSDLPVWGQGTLVTVSS
notes: also called C7 VHH-mIgG2aFc
With B4, the binding result in experiment [1] is on record as “binds”.

B5: C9 single-domain antibody with the Fc fragment of murine IgG2a at the C-terminal (Fc fusion, not shown: a dimerising Fc or GST; small tags and cut ends)
VHH: QVQLVESGGGLVQPGGSLRLSCAASGFTFSSYAMGWARQVPGKDVEWVSGIYSDGSTYYADSVKGRFTISRYNAKNTVYLQMNSLKPEDTAVYYCATDPTLENQTTAWGQGTQVTVSS
notes: also called C9 VHH-mIgG2aFc
As for B5, the binding result in experiment [1] is given as “binds”.

B6: scFv antibody M26 with the Fc fragment of murine IgG2a at the C-terminal (Fc fusion, not shown: a dimerising Fc or GST; small tags and cut ends)
scFv: EVQLQQSGPELVKPGASVKMSCKASGYTFTSYFIHWVKQKPGQGLEWIGFINPYNDGSKYNEKFKGKATLTSDKSSSTAYMELSSLTSEDSAVYYCTRDDGYYGYAMDYWGQGTSVTVSSGGGGSGGGGSGGGGSDIQMTQSPSSLSASLGERVSLTCRATQELSGYLSWLQQKPDGTIKRLIYAASTLDSGVPKRFSGNRSGSDYSLTISSLESEDFADYYCLQYAIYPYTFGGGTKLEIK
notes: also called M26 scFv
Take B6: in experiment [2], the binding result is on record as “binds”.
